Measurements: paper PMC5045424, “The La protein counteracts cisplatin-induced cell death by stimulating protein synthesis of anti-apoptotic factor Bcl2”

Experiments:
[1] = molecular target: T1, La (LARP3, La/SSB), recombinant His-tagged wildtype (human, UniProt P05455 1-408); assay: EMSA; 25 nM RNA, 0-600 nM La; EMSA and FP: 25 nM FAM-RNA, 0-600 nM La; competition FP: 200 nM La; buffer, salt, pH and temperature not given (cited to ref 21); details: protein: recombinant; tags: His; label: 5' 6-FAM; stem-loop embedding the AUG (mfold)
T1 sequence: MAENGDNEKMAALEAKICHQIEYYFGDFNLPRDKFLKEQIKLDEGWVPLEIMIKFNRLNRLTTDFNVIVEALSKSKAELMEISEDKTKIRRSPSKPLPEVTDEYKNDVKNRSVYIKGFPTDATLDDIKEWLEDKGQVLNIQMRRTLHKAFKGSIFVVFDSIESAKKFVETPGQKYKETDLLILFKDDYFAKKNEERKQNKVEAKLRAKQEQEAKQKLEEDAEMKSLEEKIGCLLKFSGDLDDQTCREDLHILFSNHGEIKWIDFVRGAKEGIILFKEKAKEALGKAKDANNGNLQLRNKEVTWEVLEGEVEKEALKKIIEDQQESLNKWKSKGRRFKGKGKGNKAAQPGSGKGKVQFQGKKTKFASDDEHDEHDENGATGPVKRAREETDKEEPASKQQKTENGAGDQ

[2] = molecular target: T1, La (LARP3, La/SSB), recombinant …; assay: fluorescence polarization; 25 nM RNA; EMSA and FP: 25 nM FAM-RNA, 0-600 nM La; competition FP: 200 nM La; buffer, salt, pH and temperature not given (cited to ref 21); details: protein: recombinant; tags: His; label: 5' 6-FAM; stem-loop embedding the AUG (mfold)

## CCCGUUGCUUUUCCUCUGGGAAGGAUGGCGCACGCUGGG (structured_RNA) [Bcl2_WT RNA oligonucleotide, FAM-labeled (-24 to +15)]
[1]
  Kd: 50.5 ± 5.9 nM
[2]
  Kd: 60.1 ± 4.5 nM
